This note sets out measurements from the nanobody polyreactivity screen of Harvey et al. (2022).

A short description of the data set: yeast display, Sf9 membrane polyspecificity reagent, FACS + sequencing; frameworks hold sequencing errors. In outline:
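In a synthetic yeast display library (Saccharomyces cerevisiae BJ5465), nanobody expression was induced with galactose for 36–48 hours. FACS gates were set low and high (top ~1%) using anti-HA fluorescence for expression and streptavidin fluorescence for binding of the Sf9 membrane reagent. Each polyreactivity label is drawn from the gate of origin.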
“QVQLVESGGGLVQAGGSLRLSCAASGYTFRTNVMGWYRPAPGKVWELVATINWRGGSTYYADSVKGRFTISRDNAKNTVYLQMNSLKPEDTAVYYCAKSYRYYRTMDYWGQGTQVTVSS”: the “polyreactivity (PSR sort gate)” value is “low polyreactivity”.

As to “QVQLVESGGGLVQAGGSLPLTCAASGRILRAYAMGWYRQAPGNEMELVAAISFSGGSTYYADSVKGRFTISRDYAKNYVYLQINSLKPEDTAVYYCNALYTSYYRPSCMGYWGQGTQVTVSS”, the “polyreactivity (PSR sort gate)” value is given as “high polyreactivity”.

In the case of “QVQLVESGGGLVQAGGSLRLSCAASGSTFPQYAMGRYRQAPGKERELVAAISRSGGSTYYADSVKGRFTISRDNAKNTVYLQMNSLKPEDTAVYYCNVKSGFWFYPTMDYWGQGTQVTVSS”, the “polyreactivity (PSR sort gate)” value is listed as “high polyreactivity”.

Take “QDQLVESGGGLVQAGGSLRLSCAASGRTFYRNAMGWYRQAPGKERELVAAISGSGVRTYYADSVKGRFTISRDNAKNTVYLHMNSLKPEDTAVYYCARSVTWFRGRFSPDYGSWGQGTQVTVSS”: the “polyreactivity (PSR sort gate)” value was “high polyreactivity”.

“QVQLVESGGGLVQAGGSLRLSCAASGSIFPFYAMGWYRQAPGKEREMLAANSDRGGSTYYADSVKGRFTISRDNAKNTVYLQMNSLKPEDTAVYYCNADRARFTYRATTYTGRYDYWGQGTQVTVSS”: the “polyreactivity (PSR sort gate)” value is reported as “low polyreactivity”.

As to “QVQLVESGGGLVQAGGSLRLSCAASGSTFYYYAMGWSRQAPGKERELVATITSGGSTNYADSVKGRFTISRDNAKNTVYLQMNSLKPEDTAVYYCNADDGYSVWGYDYWGQGTQVTVSS”, the “polyreactivity (PSR sort gate)” value is “low polyreactivity”.

Consider “QVQLVESGGGLDQAGGSLRLSCAASGLTSLGNAMGWYRQAPGKERELVAAITRTGTSTYYADSVKGRFTISRDNAKNTVYLQMNSLKPEDTAVYYCNADGQSQYRYGSQYRYDYWGQGTQVTVSS”, for which the “polyreactivity (PSR sort gate)” value is “low polyreactivity”.

As to “QVQLVESGGGLVQAGGSLRLSCAASGSISVVNMGWYRQAPGKERELVASITSSGSTTYADSVKGRFTISRDNAKNTVYLQMNSLKPEDTAGYYCAASSTGYGGSTYYYWGQGTQVTVSS”, the “polyreactivity (PSR sort gate)” value is “low polyreactivity”.

Turning to “QVQLVESGGGLVQAGGSLRLSCAASGRTFGVNAMGWYRQAPGKERELVAAINRGGSTYYADSVKGRFTISRDNAKNTVYLQMNSLKPEDTAVYYCAAYVSAVHRNSGYWGQGTQVTVSS”, the “polyreactivity (PSR sort gate)” value was “low polyreactivity”.

As for “QDQLVESGGGLVQAGGSLRLSGAASGRTFLGYAMGCYRQAPGKERALVAAITWRGGITYYADSVKGRFTISRDNAKNTVYLQMNSLKPEDTAVYYCAARKVGNRYTYYWGQGTQVTVSS”, the “polyreactivity (PSR sort gate)” value is given as “high polyreactivity”.

Regarding “QVQLVESGGGLVQAGGSLRLSCAASGRIFIYNAMGWSRQAPGKEREFVAAISSSGGSTYYADSVKGRFTISRDNAKNTVYLQMNSLKPEDTAVYYCAAGGWPYSGGWFFQPNYDYWGQGTQVTVSS”, the “polyreactivity (PSR sort gate)” value is “low polyreactivity”.

Take “QVQLVESGGGLVHAGGSLRLSCAASGRTFWSYAMGWYRQAPGKERELVAAIRTSDGITYYADSVKGRFTISRDNAKNTVYLQMNSLKPEDTAVYYCAAENWYKYDYWGQGTQVTVSS”: the “polyreactivity (PSR sort gate)” value is recorded as “low polyreactivity”.

“QVQLVESGGGLVQAGGSLRLSCAASGIIFYIYTMGWYRQAPGKERELVAAINRSGSRTYYADSVKGRFTISRDYAKNNVYLQMNSLKPEDTAVYYCAAGTGSRDDYWGQGTQVTVST”: the “polyreactivity (PSR sort gate)” value was “high polyreactivity”.

With “QVQLVESGGGLDQAGGSLRLSCAASGSIFYFYTMGWYRQAPGKEREFVAAINGIGGSTYYADSVKGRFTISRDNAKNTVYLQMNRLKPEDTAVYYCAADAPWFKRNARKYNYWGQGTQVTVSS”, the “polyreactivity (PSR sort gate)” value is “low polyreactivity”.

Turning to “QVQHVESAGGLVQAGGSLRLSCAASARTFRYYAMGWYRQSPGKERELVAAINYSGGRTYYADSVKGRFTISRDNAKITVYLQMNSLNPEDTAVYYCNAVLGSYLPKFDYWGQGTQVTVSS”, the “polyreactivity (PSR sort gate)” value is given as “high polyreactivity”.

Consider “KVQLVDSGGGLVQAGGSLRLSCAASGSIFGDNAMGWYIQAPGKERELVAAISIVGSTSYADSVKGRFTISRDNAKNTVYLLMNSLKPEDTAVYYCAAENVRSDTGFDYCGQGTQVTVSS”, for which the “polyreactivity (PSR sort gate)” value was “low polyreactivity”.

Consider “QVQLVESGGGLVQAGGSLRLSCAASGSIFDVYTMGWYRPAPGKERELVAAISWSGGSTFYADSVKGRFTISRDNAKNTVYLQMNSLKPEDTAVYYCAAELSLGNYWYDFWGQGTQVTVSS”, for which the “polyreactivity (PSR sort gate)” value is listed as “high polyreactivity”.

With “QVQLVESGGGLVQAGGSLRLSCAASGSIFRYYAMGWYRQAPGKERELVARISWRAGSTYADSVKGRFTISRDNAKNTVYLQMNSLKPEDTAVYYCNADAHKYSWVGTSEYEYWGQGTQVTVSS”, the “polyreactivity (PSR sort gate)” value is on record as “high polyreactivity”.

On to “QVQLVESGGGLVQAGGSLRLSCASSGRIFAHNAMGWYSQAPGKERELVAAINSGGSTDYADSVKGRFTISRDNAKNTVYLQMNSLKPEDTAVYYCAADDPGSFPDDSWGQGTQGTVSS”, for which the “polyreactivity (PSR sort gate)” value is “low polyreactivity”.

As for “QVQLVESGGGLVQAGGSLRLSCAASGFTFSYYAMGGYRQAPGKERELVAGIDYSGGSTYYADSVKGRFTISRDNAKNTVYLQMNSQKPEDTAVFYCNAVYARKYYYSHGYDYWGQGTQVTVSS”, the “polyreactivity (PSR sort gate)” value is reported as “high polyreactivity”.

Consider “QVQLVESGGGLVQAGGSLPLRCPASGSIFYQYAMGWYRQAPGKVRELVARIRGSTGTTYYADSVKGRFTISRDNAKNTVYLHMNSLKPEDTAVYYCNAARYQGRSRFDYWGQGSQVTVSS”, for which the “polyreactivity (PSR sort gate)” value is on record as “high polyreactivity”.

For “QVQLVESGGGLLQAGGSLRLSCAASGFIFKYYAMGWYRQAPGKEREFVAGINWSGTSTYYADSVKGRFTISRDNAKNTVYLQMNSLKPEDTAVYYCAATAYRGRTSRYYYWGQGTQVTVSS”, the “polyreactivity (PSR sort gate)” value is “high polyreactivity”.

Turning to “QVQLVESGAGLVQAGGSLRLSCAASGLIFSVYGLGWYRQEPGKERELVAAISSRGGSTYYADSVKGRFTISRVNANYTVYLQMNSLKPEDTAFYYCARRAYREHHRCQYYYWGQGTQLTVSS”, the “polyreactivity (PSR sort gate)” value is listed as “high polyreactivity”.

On to “QVQLVESGGGLVQAGGSLRLSCAASGSIIDLYAMGWYRQAPGKERELVAAISFSGGSTYYADSVKGRFTISRDNAKNTVYLQMNSLKPEDTAVYYCAKDVRRTLRFRAFDYWGQGTQVSVSS”, for which the “polyreactivity (PSR sort gate)” value is listed as “low polyreactivity”.

On to “QVQLVESGGGLVQAGGSLRLSCAASGSTFAVYAMGWSRKAPGKERELVATIRWSAGRTYYADSVKGRFTISRDNAKNTVYLQMNSLKPEDTAVYYCAARTWGQSTYGQGLDYWGQGTQVTVSS”, for which the “polyreactivity (PSR sort gate)” value is given as “high polyreactivity”.

On to “HVQLVESGGGLVQAGGSLRLSCAACGSTFRRYTMGWYIQAPGKDRELVAAITWSGGSTYYADSVKGRFTISRDNAKNTVYLQMNSLKPEDTAVYYCAADRPYHTREYYYWGQGSQVTVSS”, for which the “polyreactivity (PSR sort gate)” value is “low polyreactivity”.

On to “QVQLVESGGGLVQAAGSLRLSCAASGFTIAHYAMGRYSHAPGKERELVAGISRSGGSTYYADSVKGRFTISRDNAKNTVYLQMNILKPEDTAVYYCATVTYLKRVRYQSGYDSWGQGTQVTVSS”, for which the “polyreactivity (PSR sort gate)” value is on record as “low polyreactivity”.

As for “QVQLVESGGGLVQAGGSLRLSCAASGIIFDYYAMGWYRQAPGKERELVATITGNSTNTYYADSVKGRFTISRDNAKNTVYLQMNSLKPEDTAVYYCATAQTRWWPSIAGYDYWGQGTQVTVSS”, the “polyreactivity (PSR sort gate)” value was “high polyreactivity”.

Turning to “QVQLVESGGGLVQAGGSLRLSCAASGRTFGTYAMGWSRQAPGKERELVASITWSGTSTYYADSVKGRFTISRDNAKNTVYLQMNSLKPEDTAVYYCAAGWGYYRYYYWGQGTQVTVSS”, the “polyreactivity (PSR sort gate)” value was “high polyreactivity”.

“QVRLVESGGGLVQAGGSLRLSCADSGSTLDINAMGWYTQAPGKERELVASISWTGGHTYYADSVKGRFTISRDNAKNTVYLQMNSLKPEDTAVYYCAATHQETVYYFLSIFDDWGQGTQVTLSS”: the “polyreactivity (PSR sort gate)” value is recorded as “low polyreactivity”.

“QVQLVESGGGLVQAGGSLRLICAASGNTFNFYAMGSYRQAPGKERELVAGISGSNTYYADSVKGRFTISRDNAKNTVYLQMNSLKPEDTAVYYCAKRAIWRYGYWGQGTQVTVSS”: the “polyreactivity (PSR sort gate)” value is “high polyreactivity”.

In the case of “QVQLEESGGGLVQAGGSLRLSCAASGGTFGWYAMGWYRPAPGTERELVAAITSSGGTTFYADSVKGRFTISRDTAKNTVYLQMNSLKPEDTAVYYCAKRGKRPTRYKLGKYDYWGQGTQVTVSS”, the “polyreactivity (PSR sort gate)” value is listed as “high polyreactivity”.

Consider “QVHLVESGGGLVQAGGSLRLSCAASGRIFRGYAMGWYRQAPGKERELVATISWNGGSTYYADSVKGRFTISRDNAKNTVYLQMNSLKPEDTAVYYCNKRYWGGRYGYDYWGQGTQVTVSS”, for which the “polyreactivity (PSR sort gate)” value is “high polyreactivity”.

For the sequence “QVQLVESGGGLVQAGGSLRISCAASGNIFVDYAMGWYTQAPGKERELVATITRTGDSTTYADSVKGRFTISRDNAKNTVYLQMNSLKPEDTAVYYCNTDLRLVYRTKGFISWGYDYWGQGTQVTVSS”, the “polyreactivity (PSR sort gate)” value was “low polyreactivity”.

In the case of “QVHLVESGGGLVQAGGSLRLSCAASGRIFNSYAMGWYRPAPGKERELVAAINWTDVSTYYADSVKGRFTLSRYNAKNTVYVELNSLTPDDTAVYYGPDVRWGSYTLSDDYWGQGTQVTVSS”, the “polyreactivity (PSR sort gate)” value is on record as “low polyreactivity”.

Turning to “QVQLVESGGGLVQAGGSLRLSCAASGSIFDYNAMGWYRQAPGKEREFVAAISSSAGSTYYADSVKGRFTISRDNAKNTVYLQMNSLKPEDTAVYYCAARYQSPFRTYRFGMDYWGQGTQVTVSS”, the “polyreactivity (PSR sort gate)” value is on record as “low polyreactivity”.

In the case of “QVQLVESGGGLVQAGGSLRLSCAASGRIFRGYGMAWYRQAPGKERELVAAISRGGNTDYADSVKGRFTISRDNANNTVYLQMNSLKPEETAVYYCAVGYVSYRKLYLYNSWGQGTQVTVSS”, the “polyreactivity (PSR sort gate)” value was “high polyreactivity”.

With “QVQLVESGGGLVQAGGSLRLSCAASGSIFYKYMGWYRQAPGKERELVAAISWSGGRTYYADSVKGRFTISRDNAKNTVYLQMNSLKPEDTAVYYCNRVVLWRIGDKAFEYWGQGTQVTVSS”, the “polyreactivity (PSR sort gate)” value is reported as “high polyreactivity”.

In the case of “QVQLVESGGGLVQAGGSLRLSCAASGYTFKTNDMGRYRQAPGKEREFVAAIDSGGNTYYADSVKGRFTISRDNAKNTVYLQMNSVKPEDTAVYYCGAYRDYQYDYWGQGTQVTVSS”, the “polyreactivity (PSR sort gate)” value was “low polyreactivity”.

Consider “QVLLQESGGGLVQAGGSLRLSCAAIGTISTDIRMGWYRLAPGKEREFVASIDGCSTTYYADSVTGRFTISRDNAKNTVYLQMNSLKPEDTAMFYCAAREATEFYLYYWGQGTQVTVSS”, for which the “polyreactivity (PSR sort gate)” value was “low polyreactivity”.
